± gives the uncertainty stated by the source.
B1: RUN and FYVE domain-containing protein 1, residues 639 to 698; numbered along this chain, Q96T51 (parent)
chain: WLKDDEATHCRQCEKEFSISRRKHHCRNCGHIFCNTCSSNELALPSYPKPVRVCDSCHTL

Variants of: B1
Test: abundance fitness (aPCA) (normalised: wild type 0, dead -1); higher = more abundant; growth selection in yeast, the domain comes from the species named
Conditions: Homo sapiens

Variant	abundance fitness
WLKDDEATHCRQCEKEFSISRRKRHCRNCGHIFCNTCSSNELALPSYPKPVRVCDSCHTL [H24R]	-0.378 ± 0.045
WLKDDEATHCRQCEKEFSISRRKTHCRNCGHIFCNTCSSNELALPSYPKPVRVCDSCHTL [H24T]	-0.146 ± 0.051
WLKDDEATHCRQCEKEFSISRRKQHCRNCGHIFCNTCSSNELALPSYPKPVRVCDSCHTL [H24Q]	-0.293 ± 0.062
WLKDDEATHCRQCEKEFSISRRKVHCRNCGHIFCNTCSSNELALPSYPKPVRVCDSCHTL [H24V]	-0.166 ± 0.046
WLKDDEATHCRQCEKEFSISRRKWHCRNCGHIFCNTCSSNELALPSYPKPVRVCDSCHTL [H24W]	-0.282 ± 0.048
WLKDDEATHCRQCEKEFSISRRKPHCRNCGHIFCNTCSSNELALPSYPKPVRVCDSCHTL [H24P]	-0.97 ± 0.091
WLKDDEATHCRQCEKEFSISRRKSHCRNCGHIFCNTCSSNELALPSYPKPVRVCDSCHTL [H24S]	-0.284 ± 0.039
WLKDDEATHCRQCEKEFSISRRKHCCRNCGHIFCNTCSSNELALPSYPKPVRVCDSCHTL [H25C]	-0.169 ± 0.077
WLKDDEATHCRQCEKEFSISRRKHVCRNCGHIFCNTCSSNELALPSYPKPVRVCDSCHTL [H25V]	0.044 ± 0.04
WLKDDEATHCRQCEKEFSISRRKHNCRNCGHIFCNTCSSNELALPSYPKPVRVCDSCHTL [H25N]	-0.311 ± 0.081
WLKDDEATHCRQCEKEFSISRRKHKCRNCGHIFCNTCSSNELALPSYPKPVRVCDSCHTL [H25K]	0.012 ± 0.058
WLKDDEATHCRQCEKEFSISRRKHYCRNCGHIFCNTCSSNELALPSYPKPVRVCDSCHTL [H25Y]	0.097 ± 0.068
WLKDDEATHCRQCEKEFSISRRKHICRNCGHIFCNTCSSNELALPSYPKPVRVCDSCHTL [H25I]	-0.13 ± 0.1
WLKDDEATHCRQCEKEFSISRRKHECRNCGHIFCNTCSSNELALPSYPKPVRVCDSCHTL [H25E]	-0.02 ± 0.052
WLKDDEATHCRQCEKEFSISRRKHMCRNCGHIFCNTCSSNELALPSYPKPVRVCDSCHTL [H25M]	0.051 ± 0.037
WLKDDEATHCRQCEKEFSISRRKHACRNCGHIFCNTCSSNELALPSYPKPVRVCDSCHTL [H25A]	0.121 ± 0.045
WLKDDEATHCRQCEKEFSISRRKHDCRNCGHIFCNTCSSNELALPSYPKPVRVCDSCHTL [H25D]	-0.176 ± 0.058
WLKDDEATHCRQCEKEFSISRRKHWCRNCGHIFCNTCSSNELALPSYPKPVRVCDSCHTL [H25W]	0.128 ± 0.053
WLKDDEATHCRQCEKEFSISRRKHPCRNCGHIFCNTCSSNELALPSYPKPVRVCDSCHTL [H25P]	-0.065 ± 0.043
WLKDDEATHCRQCEKEFSISRRKHSCRNCGHIFCNTCSSNELALPSYPKPVRVCDSCHTL [H25S]	0.07 ± 0.034
WLKDDEATHCRQCEKEFSISRRKHTCRNCGHIFCNTCSSNELALPSYPKPVRVCDSCHTL [H25T]	-0.118 ± 0.055
WLKDDEATHCRQCEKEFSISRRKHRCRNCGHIFCNTCSSNELALPSYPKPVRVCDSCHTL [H25R]	0.151 ± 0.044

Variant	abundance fitness
WLKDDEATHCRQCEKEFSISRRKHQCRNCGHIFCNTCSSNELALPSYPKPVRVCDSCHTL [H25Q]	0.169 ± 0.046
WLKDDEATHCRQCEKEFSISRRKHFCRNCGHIFCNTCSSNELALPSYPKPVRVCDSCHTL [H25F]	-0.045 ± 0.091
WLKDDEATHCRQCEKEFSISRRKHHLRNCGHIFCNTCSSNELALPSYPKPVRVCDSCHTL [C26L]	-0.763 ± 0.055
WLKDDEATHCRQCEKEFSISRRKHHVRNCGHIFCNTCSSNELALPSYPKPVRVCDSCHTL [C26V]	-0.913 ± 0.082
WLKDDEATHCRQCEKEFSISRRKHHHRNCGHIFCNTCSSNELALPSYPKPVRVCDSCHTL [C26H]	-0.628 ± 0.11
WLKDDEATHCRQCEKEFSISRRKHHTRNCGHIFCNTCSSNELALPSYPKPVRVCDSCHTL [C26T]	-0.832 ± 0.09
WLKDDEATHCRQCEKEFSISRRKHHFRNCGHIFCNTCSSNELALPSYPKPVRVCDSCHTL [C26F]	-0.89 ± 0.14
WLKDDEATHCRQCEKEFSISRRKHHDRNCGHIFCNTCSSNELALPSYPKPVRVCDSCHTL [C26D]	-0.794 ± 0.11
WLKDDEATHCRQCEKEFSISRRKHHMRNCGHIFCNTCSSNELALPSYPKPVRVCDSCHTL [C26M]	-0.76 ± 0.094
WLKDDEATHCRQCEKEFSISRRKHHIRNCGHIFCNTCSSNELALPSYPKPVRVCDSCHTL [C26I]	-0.866 ± 0.13
WLKDDEATHCRQCEKEFSISRRKHHRRNCGHIFCNTCSSNELALPSYPKPVRVCDSCHTL [C26R]	-0.804 ± 0.076
WLKDDEATHCRQCEKEFSISRRKHHGRNCGHIFCNTCSSNELALPSYPKPVRVCDSCHTL [C26G]	-0.709 ± 0.072
WLKDDEATHCRQCEKEFSISRRKHHYRNCGHIFCNTCSSNELALPSYPKPVRVCDSCHTL [C26Y]	-0.77 ± 0.13
WLKDDEATHCRQCEKEFSISRRKHHPRNCGHIFCNTCSSNELALPSYPKPVRVCDSCHTL [C26P]	-0.508 ± 0.071
WLKDDEATHCRQCEKEFSISRRKHHQRNCGHIFCNTCSSNELALPSYPKPVRVCDSCHTL [C26Q]	-0.855 ± 0.087
WLKDDEATHCRQCEKEFSISRRKHHKRNCGHIFCNTCSSNELALPSYPKPVRVCDSCHTL [C26K]	-0.677 ± 0.12
WLKDDEATHCRQCEKEFSISRRKHHARNCGHIFCNTCSSNELALPSYPKPVRVCDSCHTL [C26A]	-0.694 ± 0.083
WLKDDEATHCRQCEKEFSISRRKHHNRNCGHIFCNTCSSNELALPSYPKPVRVCDSCHTL [C26N]	-0.418 ± 0.12
WLKDDEATHCRQCEKEFSISRRKHHERNCGHIFCNTCSSNELALPSYPKPVRVCDSCHTL [C26E]	-0.655 ± 0.11
WLKDDEATHCRQCEKEFSISRRKHHWRNCGHIFCNTCSSNELALPSYPKPVRVCDSCHTL [C26W]	-0.748 ± 0.11
WLKDDEATHCRQCEKEFSISRRKHHSRNCGHIFCNTCSSNELALPSYPKPVRVCDSCHTL [C26S]	-0.636 ± 0.065
WLKDDEATHCRQCEKEFSISRRKHHCRNFGHIFCNTCSSNELALPSYPKPVRVCDSCHTL [C29F]	-0.871 ± 0.098
